From patent US20170233442
pKd: −log10 of the molar value.

Molecular target: T1, P3L (nucleolin RRM2-derived peptide) (UniProt P19338)
T1 sequence: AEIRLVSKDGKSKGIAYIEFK
Test: ITC
Conditions: 20 mM MOPS pH 7.0, 300 mM NaCl, 25 C; for Kd: unit inferred, uM from context

Substance | Kd [µM] | also measured
SCA2CAG22 RNA (unexpanded) |  | pKd (unexpanded repeat): 4.76
SCA2CAG42 RNA | 5.6 | 
SCA2CAG55 RNA | 4.83 | 
SCA2CAG72 RNA |  | pKd (one-site model, CD also showed structural change on RNA addition (FIG. 2)): 6.18
